Measurements taken from PMC5620376.

Columns and labels:
Assay in all cases: pull-down
GST-Sft1 (yeast) = target: T1, GST-Sft1 (yeast)
T1 sequence (P43682 whole entry, looked up): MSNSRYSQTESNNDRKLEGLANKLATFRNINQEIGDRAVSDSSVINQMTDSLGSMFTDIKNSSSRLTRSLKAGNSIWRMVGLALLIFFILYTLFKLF

GST-Gos1 (yeast) = target: T2, GST-Gos1 (yeast)
T2 sequence (P38736 whole entry, looked up): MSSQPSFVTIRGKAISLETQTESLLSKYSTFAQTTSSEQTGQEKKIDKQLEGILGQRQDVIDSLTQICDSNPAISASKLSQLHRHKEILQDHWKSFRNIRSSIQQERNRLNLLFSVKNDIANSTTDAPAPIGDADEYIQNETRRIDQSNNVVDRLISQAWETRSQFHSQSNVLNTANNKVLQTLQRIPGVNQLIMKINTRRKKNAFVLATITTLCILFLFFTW

GST-Ykt6 (yeast) = target: T3, GST-Ykt6 (yeast)
T3 sequence (P36015 whole entry, looked up): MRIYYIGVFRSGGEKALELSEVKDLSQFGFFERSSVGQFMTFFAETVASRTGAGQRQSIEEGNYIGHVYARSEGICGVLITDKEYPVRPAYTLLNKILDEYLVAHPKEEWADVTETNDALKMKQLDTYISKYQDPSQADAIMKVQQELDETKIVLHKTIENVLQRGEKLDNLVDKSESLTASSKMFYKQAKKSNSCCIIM

GST-Bet1 (yeast) = target: T4, GST-Bet1 (yeast)
T4 sequence (P22804 whole entry, looked up): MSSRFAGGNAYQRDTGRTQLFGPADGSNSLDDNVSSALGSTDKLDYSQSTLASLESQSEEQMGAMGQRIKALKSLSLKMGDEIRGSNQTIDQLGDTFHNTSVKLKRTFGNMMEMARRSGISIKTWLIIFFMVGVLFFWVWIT

GST = target: GST
GST-Sed5 (yeast) = target: GST-Sed5 (yeast)
Sequence of GST-Sed5 (yeast) (Q01590 whole entry): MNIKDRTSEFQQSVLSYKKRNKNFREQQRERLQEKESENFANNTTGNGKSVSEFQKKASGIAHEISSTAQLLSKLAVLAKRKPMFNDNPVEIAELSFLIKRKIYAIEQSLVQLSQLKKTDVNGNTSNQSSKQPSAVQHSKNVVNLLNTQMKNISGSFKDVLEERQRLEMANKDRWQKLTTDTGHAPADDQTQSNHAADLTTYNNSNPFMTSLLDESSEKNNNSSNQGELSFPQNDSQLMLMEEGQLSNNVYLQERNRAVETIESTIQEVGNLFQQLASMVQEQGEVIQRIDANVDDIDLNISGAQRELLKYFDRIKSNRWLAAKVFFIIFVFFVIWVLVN

- percent of input recovered (GST-Sft1 (yeast)): 15%
- percent of input recovered (GST-Gos1 (yeast)): 15%
- percent of input recovered (GST-Ykt6 (yeast)): < 1%
- percent of input recovered (GST-Bet1 (yeast)): < 1%
- percent of input recovered (GST): < 1%
- percent of input recovered (GST-Sed5 (yeast)): 15%
B1: Coy1ΔTM-HA (domain or fragment)
chain: MDTSVYSHALDIWAKADLTNLQRELDADVIEIKDKETLSLNSRKSLATETKKFKKLEPEEKLNNVNKIIKQYQREIDNLTQRSKFSEKVLFDVYEKLSEAPDPQPLLQSSLEKLGKIDDSKELKEKISYLEDKLAKYADYETLKSRLLDLEQSSAKTLAKRLTAKTQEINSTWEEKGRNWKEREADLLKQLTNVQEQNKALEAKISKNIDIEGNGNEDGDQENNQKEVSTRIAEYNLVTQELETTQARIYQLEKRNEELSGALAKATSEAEKETELHAKELKLNQLESENALLSASYEQERKSTSHAINELKEQLNSVVAESESYKSELETVRRKLNNYSDYNKIKEELSALKKIEFGVNEDDSDNDIRSEDKNDNTFESSLLSANKKLQATLAEYRSKSTAQEEERNELKKSVDQLKQQIATLKEANEKLETDLEKVENVSPHFNETASMMSGVTRQMNNRTSHKMSPTSSIIGIPEDGELSGNQSTILPIVTKQRDRFRSRNMDLEKQLRQGNSEKGKLKLEISKLKGDNTKLYERIRYLQSYNNNNAPVNQSTERIDVESQYSRVYDESLHPMANFRQNELNHYKNKKLSALEKLFSSFAKVILQNKMTR
